Earlier results in PMC12528258.
Read-outs that look alike come from different tables or passages of the source.

Key:
[1] = molecular target: H3K9me3 tail tail (Homo sapiens) (UniProt P68431)
[2] = molecular target: H3K9me3 tail tail (Homo sapiens) (UniProt P68431); remark: listed apart in the source
[3] = molecular target: H3K9me3 tail tail (Homo sapiens) (UniProt P68431); remark: listed apart in the source
[4] = molecular target: H3K9me3 tail tail (Homo sapiens) (UniProt P68431); remark: listed apart in the source

Chain of HP1α (P45973 whole entry): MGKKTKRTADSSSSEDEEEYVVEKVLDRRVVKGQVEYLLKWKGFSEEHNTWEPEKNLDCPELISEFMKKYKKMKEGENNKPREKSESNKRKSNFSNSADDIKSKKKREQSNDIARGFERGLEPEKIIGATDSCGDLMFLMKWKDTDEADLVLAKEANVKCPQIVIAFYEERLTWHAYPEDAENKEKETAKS
Chain of HP1β (P83916 whole entry): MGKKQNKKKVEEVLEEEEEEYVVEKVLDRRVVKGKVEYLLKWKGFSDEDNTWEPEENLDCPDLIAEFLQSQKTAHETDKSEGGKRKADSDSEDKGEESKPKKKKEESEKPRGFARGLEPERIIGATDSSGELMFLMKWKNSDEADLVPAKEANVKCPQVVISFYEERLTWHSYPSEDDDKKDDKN
Chain of HP1γ (Q13185 2-183): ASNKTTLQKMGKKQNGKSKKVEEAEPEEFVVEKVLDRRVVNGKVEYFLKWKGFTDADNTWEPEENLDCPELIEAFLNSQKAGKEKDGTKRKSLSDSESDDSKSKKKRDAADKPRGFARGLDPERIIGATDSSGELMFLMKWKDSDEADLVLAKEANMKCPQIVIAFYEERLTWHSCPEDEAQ

For HP1α (from UniProt P45973), the Kd [1] is listed as 8.3 µM and the Kd [2] is listed as 35 µM.
For HP1β (from UniProt P83916), the Kd [3] is listed as 5.8 µM.
In the case of HP1γ (from UniProt Q13185), the Kd [4] is listed as 12 µM.
